Measured values reported in patent US20250059527A1 (UNIVERSITY OF DUNDEE, published 2025).

Biological target: α-synuclein (human, UniProt P37840 1-140)
Experiment: immunofluorescence microscopy, co-localisation in SK-MEL13 cells
Experimental: For immunofluorescence imaging, cells were first seeded onto 16 mm diameter circular sterile coverslips in 12-well culture plates and left to adhere overnight. All coverslips were sterilised with 100% (v/v) ethanol prior to use and allowed to dry. Cells were washed twice in PBS before being fixed in 4% (w/v) paraformaldehyde (diluted in PBS) at room temperature for 10 minutes. PFA was removed and the coverslips were washed twice in PBS. Coverslips were then permeabilised with 0.2% (v/v) NP40 in PBS for 3 min. Cells were then blocked by washing twice and a 15-minute incubation in 1% (w/v) BSA/PBS. Coverslips were then incubated for 1.5 hr at room temperature with a 1:100 dilution of anti-α-synuclein antibody (610786, BD Biosciences) in a humidified chamber. They were then washed 3 times (for 10 minutes each) in 0.2% (w/v) BSA/PBS before being incubated with goat anti-mouse-IgG alexa-fluor 594 conjugated secondary antibody (A-11005, Thermo Fisher Scientific) at a dilution of 1:500 for 1 hour at 37° C., protected from light. Coverslips were then washed three times in 0.2% (w/v) BSA/PBS for 10 minutes each with the first wash containing a 1:15,000 dilution of DAPI. […]
The interaction of NbSyn87 and alpha-synuclein was determined in extracts and cells, with alpha-synuclein knockout cells included as controls for a clean alpha-synuclein IP. […]

binding result: binds
B1: GFP-NbSYN87 (VHH)
VHH: QVQLQESGGGSVQTGGSLRLSCVASGYSGYMAWFRQAPGKEREGIAAIYRGDKITYYAHSVQGRFTISQANAKNTVYLLMNSLKPEDTAIYYCAARRVVADSPLLSKTYAYWGQGTQVTVSS
notes: Transiently transfected into SK-MEL13 cells; also called GFP-tagged NbSyn87; not shown: GFP tag
